Earlier results in paper PMC4034509, “Overcoming co-product inhibition in the nicotinamide independent asymmetric bioreduction of activated C=C-bonds using flavin-dependent ene-reductases” (Biotechnology and Bioengineering, 2013).

Target: Tyr206 (UniProt position 206, …)
Conditions: Not stated. The value is discussed in the context of the phenol/phenolate charge-transfer complex with the oxidised flavin in the EBP1 active site.

B1: Estrogen binding protein EBP1 (old yellow enzyme homologue) (Candida albicans) (protein)
chain: MTIESTNSFVVPSDTKLIDVTPLGSTKLFQPIKVGNNVLPQRIAYVPTTRFRASKDHIPSDLQLNYYNARSQYPGTLIITEATFASERGGIDLHVPGIYNDAQAKSWKKINEAIHGNGSFSSVQLWYLGRVANAKDLKDSGLPLIAPSAVYWDENSEKLAKEAGNELRALTEEEIDHIVEVEYPNAAKHALEAGFDYVEIHGAHGYLLDQFLNLASNKRTDKYGCGSIENRARLLLRVVDKLIEVVGANRLALRLSPWASFQGMEIEGEEIHSYILQQLQQRADNGQQLAYISLVEPRVTGIYDVSLKDQQGRSNEFAYKIWKGNFIRAGNYTYDAPEFKTLINDLKNDRSIIGFSRFFTSNPDLVEKLKLGKPLNYYNREEFYKYYNYGYNSYDESEKQVIGKPLA
In the case of B1, the pKa is given as 9.4.
